{"source": "patent US20220162320A1", "about": "(published 2022)", "binders": {"B1": {"name": "4-G2(1H11)-OKT3 (bispecific antibody, human IgG1, kappa, N297Q)", "chain": "not shown", "heavy": "not shown", "light": "QIVLTQSPAIMSASPGEKVTMTCSASSSVSYMNWYQQKSGTSPKRWIYDTSKLASGVPAHFRGSGSGTSYSLTISGMEAEDAATYYCQQWSSNPFTFGSGTKLEINRTVAAPSVFIFPPSDEQLKSGTASVVCLLNNFYPREAKVQWKVDNALQSGNSQESVTEQDSKDSTYSLSSTLTLSKADYEKHKVYACEVTHQGLSSPVTKSFNRGEC", "notes": "also called format #4 (scFv/scFv-Fab): scFv G2(1H11), Fab OKT3"}, "B2": {"name": "3-G2(1H11)-hOKT3 (bispecific antibody, human IgG1, kappa, N297Q)", "chain": "not shown", "heavy": "QVQLVQSGAEVKKPGASVKVSCKASGYTFTRYTMHWVRQAPGQGLEWMGYINPSRGYTNYNQKFKDRVTLTTDKSSSTAYMELSSLRSEDTAVYYCARYYDDHYSLDYWGQGTLVTVSSASTKGPSVFPLAPSSKSTSGGTAALGCLVKDYFPEPVTVSWNSGALTSGVHTFPAVLQSSGLYSLSSVVTVPSSSLGTQTYICNVNHKPSNTKVDKRVEPKSCDKTHTCPPCPAPELLGGPSVFLFPPKPKDTLMISRTPEVTCVVVDVSHEDPEVKFNWYVDGVEVHNAKTKPREEQYQSTYRVVSVLTVLHQDWLNGKEYKCKVSNKALPAPIEKTISKAKGQPREPQVCTLPPSREEMTKNQVSLSCAVKGFYPSDIAVEWESNGQPENNYKTTPPVLDSDGSFFLVSKLTVDKSRWQQGNVFSCSVMHEALHNRFTQKSLSLSPGK", "light": "DIQMTQSPSSLSASVGDRVTITCSASSSVSYMNWYQQKPGKAPKRLIYDTSKLASGVPSRFSGSGSGTDFTLTISSLQPEDFATYYCQQWSSNPFTFGQGTKLEIKRTVAAPSVFIFPPSDEQLKSGTASVVCLLNNFYPREAKVQWKVDNALQSGNSQESVTEQDSKDSTYSLSSTLTLSKADYEKHKVYACEVTHQGLSSPVTKSFNRGEC", "notes": "also called 3-hOKT3-G2(1H11)"}}, "key": {"[1]": {"molecular_target": "T1, HLA-B*35:01 (alpha chain with beta-2 microglobulin), recombinant (human)", "T1 construct": "also called HLA complex of the conditional ligand exchange / stability ELISA", "assay": "conditional ligand exchange, stability ELISA"}, "[2]": {"molecular_target": "T2, HLA-PEPTIDE target G2: HLA-A*01:01_…, recombinant soluble complex (human, enzymatically biotinylated (BirA))", "T2 construct": "also called G2-pHLA", "assay": "BLI, antibody from 100 nM in 1:2 steps, 1:1 model; apparent KD"}, "[3]": {"molecular_target": "T2, HLA-PEPTIDE target G2: HLA-A*01:01_…, …", "assay": "BLI"}, "[4]": {"molecular_target": "T3, HLA-A*01:01_… (G2) presented on cells (human)", "T3 construct": "whole, on cells", "assay": "flow cytometry on pulsed K562 cells, against off target peptide [..] and unpulsed cells"}}, "data": [{"binder": "EVDPIGHVY (also called G5 peptide)", "note": "[peptide EVDPIGHVY]", "values": [{"measurement": "binding result", "setting": "[1]", "value": "binds"}]}, {"binder": "B1", "values": [{"measurement": "Kd", "setting": "[2]", "value": 1.27, "unit": "nM"}]}, {"binder": "B2", "values": [{"measurement": "binding result", "setting": "[3]", "value": "binds"}, {"measurement": "binding result", "setting": "[4]", "value": "binds"}]}]}
